From patent publication US20230416371A1 (Chugai, published 2023)

Experiments:
[1] = target: T1, human FcγRIIIa V (allotype V158) extracellular domain (human, UniProt P08637 17-208); assay: SPR Biacore 8K+; KD of G1d divided by KD of this antibody
T1 construct: extracellular domain; also called hFcγRIIIaV
Method: (§1) The extracellular domains of FcγRs were produced by the method described in WO2014104165. The interaction between the produced antibodies and human FcγRs was analyzed using Biacore 8K+by the method below. For the running buffer, 50 mM Na-Phosphate, 150 mM NaCl, and 0.05% Tween20 (pH 7.4) was used, and measurement was performed at 25° C. The sensor chip used was a Series S SA chip (GE Healthcare) onto which CaptureSelect Human Fab-kappa Kinetics Biotin Conjugate (Thermo Fisher Scientific) was immobilized. An antibody of interest was captured onto this chip, and each FcγR diluted with the running buffer was allowed to interact with it. The chip was regenerated using 10 mM Glycine-HCl (pH 1.5), and repeatedly used to capture antibodies and perform measurement. The dissociation constants KD (mol/L) of each antibody for FcγRs were calculated using Biacore Insight Evaluation Software, with a steady state affinity model for the dissociation constant for FcγRIIb and a 1:1 Langmuir binding model for the dissociation constants for the other FcγRs (Table 2).

[2] = target: T2, human FcγRIIIa F (allotype F158) extracellular domain (human, UniProt P08637 17-208); assay: SPR Biacore 8K+; KD for FcγRIIb divided by KD for this FcγR
T2 construct: extracellular domain; also called hFcγRIIIaF
T2 sequence (P08637 17-208): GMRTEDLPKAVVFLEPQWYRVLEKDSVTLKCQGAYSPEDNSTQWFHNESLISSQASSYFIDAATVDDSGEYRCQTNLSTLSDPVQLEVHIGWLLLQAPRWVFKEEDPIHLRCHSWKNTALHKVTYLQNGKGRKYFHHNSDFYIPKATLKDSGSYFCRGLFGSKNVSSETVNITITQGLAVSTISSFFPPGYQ
Method: as §1

T1 sequence (P08637 17-208 F176V): as the sequence (P08637 17-208) above, with F160V counted along it

Binder	Relative value to KD between G1d and hFcγRs [1] [times]	A/I ratio (KD for FcγRIIb divided by KD for each FcγR) [2]
EGL-ART1 (H240-Kn125/L73-k0//H240-H1076/L73-k0) (antibody, human IgG1, kappa, Anti-human Epiregulin IgG1 with heterodimeric (knobs-into-holes) Fc variant; also called Kn125/H1076) heavy 1: QDQLVQSGAEVKKPGASVKVSCKASGFNIKDTYIQWVRQAPGQGLEWMGRIDPLRKQTKYREKFEGRVTITADTSTNTAYMELSSLRSEDTAVYYCVRSGREFDYWGQGTLVTVSSASTKGPSVFPLAPSSKSTSGGTAALGCLVKDYFPEPVTVSWNSGALTSGVHTFPAVLQSSGLYSLSSVVTVPSSSLGTQTYICNVNHKPSNTKVDKKVEPKSCDKTHTCPPCPAPEYQWGPMVFLFPPKPKDTLMISRTPEVTCVVVDVSDEEPEVKFNWYVDGVEVHNAKTKPREEQYNATYRVVSVLTVLHQDWLNGKEYKCKVSNKALPAPIEKTISKAKGQPREPQVCTLPPSRDELTKNQVSLWCLVKGFYPSDIAVEWESNGQPENNYKTTPPVLDSDGSFFLYSKLTVDKSRWQQGNVFSCSVMHEALHNHYTQKSLSLSP heavy 2: QDQLVQSGAEVKKPGASVKVSCKASGFNIKDTYIQWVRQAPGQGLEWMGRIDPLRKQTKYREKFEGRVTITADTSTNTAYMELSSLRSEDTAVYYCVRSGREFDYWGQGTLVTVSSASTKGPSVFPLAPSSKSTSGGTAALGCLVKDYFPEPVTVSWNSGALTSGVHTFPAVLQSSGLYSLSSVVTVPSSSLGTQTYICNVNHKPSNTKVDKKVEPKSCDKTHTCPPCPAPELLGGPSVFLFPPKPKDTLMISRTPEVTCVVVDVSHEEPEVKFNWYVDGVEVHNAKTKPREEQYNSTYRVVSVLTVLHQDWLNGKEYKCKVSNDALPMPIEETISKAKGQPREPQVYTLPPSRCELTKNQVSLSCAVKGFYPSDIAVEWESNGQPENNYKTTPPVLDSDGSFFLVSKLTVDKSRWQQGNVFSCSVMHEALHNHYTQKSLSLSP light: DIQMTQSPSSLSASVGDRVTITCRASQDIHKYIAWYQQKPGQAPRLLIQYTSTLQPGVPSRFSGSGSGTDYTFTISSLQPEDIATYYCLQYEQLRTFGGGTKVEIKRTVAAPSVFIFPPSDEQLKSGTASVVCLLNNFYPREAKVQWKVDNALQSGNSQESVTEQDSKDSTYSLSSTLTLSKADYEKHKVYACEVTHQGLSSPVTKSFNRGEC	323	
EGL-ART2 (H240-Kn120/L73-k0//H240-H1068/L73-k0) (antibody, human IgG1, kappa, Anti-human Epiregulin IgG1 with heterodimeric (knobs-into-holes) Fc variant; also called Kn120/H1068) heavy 1: QDQLVQSGAEVKKPGASVKVSCKASGFNIKDTYIQWVRQAPGQGLEWMGRIDPLRKQTKYREKFEGRVTITADTSTNTAYMELSSLRSEDTAVYYCVRSGREFDYWGQGTLVTVSSASTKGPSVFPLAPSSKSTSGGTAALGCLVKDYFPEPVTVSWNSGALTSGVHTFPAVLQSSGLYSLSSVVTVPSSSLGTQTYICNVNHKPSNTKVDKKVEPKSCDKTHTCPPCPAPEYYWGPMVFLFPPKPKDTLMISRTPEVTCVVVDVSDEDPEVKFNWYVDGVEVHNAKTKPREEQYNATYRVVSVLTVLHQDWLNGKEYKCKVSNKDLPAPIEKTISKAKGQPREPQVCTLPPSRDELTKNQVSLWCLVKGFYPSDIAVEWESNGQPENNYKTTPPVLDSDGSFFLYSKLTVDKSRWQQGNVFSCSVMHEALHNHYTQKSLSLSP heavy 2: QDQLVQSGAEVKKPGASVKVSCKASGFNIKDTYIQWVRQAPGQGLEWMGRIDPLRKQTKYREKFEGRVTITADTSTNTAYMELSSLRSEDTAVYYCVRSGREFDYWGQGTLVTVSSASTKGPSVFPLAPSSKSTSGGTAALGCLVKDYFPEPVTVSWNSGALTSGVHTFPAVLQSSGLYSLSSVVTVPSSSLGTQTYICNVNHKPSNTKVDKKVEPKSCDKTHTCPPCPAPELLGGPSVFLFPPKPKDTLMISRTPEVTCVVVDVSHEEPEVKFNWYVDGVEVHNAKTKPREEQYNSTYRVVSVLTVLHQDWLNGKEYKCKVSNDALPKPIEETISKAKGQPREPQVYTLPPSRCELTKNQVSLSCAVKGFYPSDIAVEWESNGQPENNYKTTPPVLDSDGSFFLVSKLTVDKSRWQQGNVFSCSVMHEALHNHYTQKSLSLSP light: DIQMTQSPSSLSASVGDRVTITCRASQDIHKYIAWYQQKPGQAPRLLIQYTSTLQPGVPSRFSGSGSGTDYTFTISSLQPEDIATYYCLQYEQLRTFGGGTKVEIKRTVAAPSVFIFPPSDEQLKSGTASVVCLLNNFYPREAKVQWKVDNALQSGNSQESVTEQDSKDSTYSLSSTLTLSKADYEKHKVYACEVTHQGLSSPVTKSFNRGEC		58.4
EGL-ART5 (H240-Kn462/L73-k0//H240-HI441/L73-k0) (antibody, human IgG1, kappa, Anti-human Epiregulin IgG1 with heterodimeric (knobs-into-holes) Fc variant) heavy 1: QDQLVQSGAEVKKPGASVKVSCKASGFNIKDTYIQWVRQAPGQGLEWMGRIDPLRKQTKYREKFEGRVTITADTSTNTAYMELSSLRSEDTAVYYCVRSGREFDYWGQGTLVTVSSASTKGPSVFPLAPSSKSTSGGTAALGCLVKDYFPEPVTVSWNSGALTSGVHTFPAVLQSSGLYSLSSVVTVPSSSLGTQTYICNVNHKPSNTKVDKKVEPKSCDKTHTCPPCPAPEFQWGPMVFLFPPKPKDVLMISRTPEVTCVVVDVSDEEPEVKFNWYVDGVEVHNAKTKPREEQYNATYRVVSVLPVLHQDWLNGKEYKCKVSNDALPAPIEKTISKAKGQPREPQVCTLPPSRDELTKNQVSLWCLVKGFYPSDIAVEWESNGQPENNYKTTPPVLDSDGSFFLYSKLTVDKSRWQQGNVFSCSVMHEALHNHYTQKSLSLSP heavy 2: QDQLVQSGAEVKKPGASVKVSCKASGFNIKDTYIQWVRQAPGQGLEWMGRIDPLRKQTKYREKFEGRVTITADTSTNTAYMELSSLRSEDTAVYYCVRSGREFDYWGQGTLVTVSSASTKGPSVFPLAPSSKSTSGGTAALGCLVKDYFPEPVTVSWNSGALTSGVHTFPAVLQSSGLYSLSSVVTVPSSSLGTQTYICNVNHKPSNTKVDKKVEPKSCDKTHTCPPCPAPELLAGPSVFLFPPKPKDVLMISRTPEVTCVVVDVSHEEPEVKFNWYVDGVEVHNAKTKPREEQYNATYRVVSVLPVLHQDWLNGKEYKCKVSNDALPAPIEETISKAKGQPREPQVYTLPPSRCELTKNQVSLSCAVKGFYPSDIAVEWESNGQPENNYKTTPPVLDSDGSFFLVSKLTVDKSRWQQGNVFSCSVMHEALHNHYTQKSLSLSP light: DIQMTQSPSSLSASVGDRVTITCRASQDIHKYIAWYQQKPGQAPRLLIQYTSTLQPGVPSRFSGSGSGTDYTFTISSLQPEDIATYYCLQYEQLRTFGGGTKVEIKRTVAAPSVFIFPPSDEQLKSGTASVVCLLNNFYPREAKVQWKVDNALQSGNSQESVTEQDSKDSTYSLSSTLTLSKADYEKHKVYACEVTHQGLSSPVTKSFNRGEC		387
EGL-ART8 (H240-Kn461/L73-k0//H240-HI443/L73-k0) (antibody, human IgG1, kappa, Anti-human Epiregulin IgG1 with heterodimeric (knobs-into-holes) Fc variant) heavy 1: QDQLVQSGAEVKKPGASVKVSCKASGFNIKDTYIQWVRQAPGQGLEWMGRIDPLRKQTKYREKFEGRVTITADTSTNTAYMELSSLRSEDTAVYYCVRSGREFDYWGQGTLVTVSSASTKGPSVFPLAPSSKSTSGGTAALGCLVKDYFPEPVTVSWNSGALTSGVHTFPAVLQSSGLYSLSSVVTVPSSSLGTQTYICNVNHKPSNTKVDKKVEPKSCDKTHTCPPCPAPEFQWGPMVFLFPPKPKDVLMISRTPEVTCVVVDVSDEEPEVKFNWYVDGVEVHNAKTKPREEQYNATYRVVSVLPVLHQDWLNGKEYKCKVSNDALPAPEEKTISKAKGQPREPQVCTLPPSRDELTKNQVSLWCLVKGFYPSDIAVEWESNGQPENNYKTTPPVLDSDGSFFLYSKLTVDKSRWQQGNVFSCSVMHEALHNHYTQKSLSLSP heavy 2: QDQLVQSGAEVKKPGASVKVSCKASGFNIKDTYIQWVRQAPGQGLEWMGRIDPLRKQTKYREKFEGRVTITADTSTNTAYMELSSLRSEDTAVYYCVRSGREFDYWGQGTLVTVSSASTKGPSVFPLAPSSKSTSGGTAALGCLVKDYFPEPVTVSWNSGALTSGVHTFPAVLQSSGLYSLSSVVTVPSSSLGTQTYICNVNHKPSNTKVDKKVEPKSCDKTHTCPPCPAPELLAGPSVFLFPPKPKDVLMISRTPEVTCVVVDVSHEEPEVKFNWYVDGVEVHNAKTKPREEQYNATYRVVSVLPVLHQDWLNGKEYKCKVSNDALPAPEEETISKAKGQPREPQVYTLPPSRCELTKNQVSLSCAVKGFYPSDIAVEWESNGQPENNYKTTPPVLDSDGSFFLVSKLTVDKSRWQQGNVFSCSVMHEALHNHYTQKSLSLSP light: DIQMTQSPSSLSASVGDRVTITCRASQDIHKYIAWYQQKPGQAPRLLIQYTSTLQPGVPSRFSGSGSGTDYTFTISSLQPEDIATYYCLQYEQLRTFGGGTKVEIKRTVAAPSVFIFPPSDEQLKSGTASVVCLLNNFYPREAKVQWKVDNALQSGNSQESVTEQDSKDSTYSLSSTLTLSKADYEKHKVYACEVTHQGLSSPVTKSFNRGEC	685	
